Consider one protein from article PMC4103548, “Expression, and Molecular and Enzymatic Characterization of Cu-Containing Nitrite Reductase from a Marine Ammonia-Oxidizing Gammaproteobacterium, Nitrosococcus oceani” (Microbes and Environments, 2012).

Substrate in the series: O=NO
The series can be described thus: nitrite consumption, diazo-coupling colorimetric assay; Hanes-Woolf plot. It counts as biochemical, Nitrosococcus oceani. As to conditions: reduced methylviologen (dithionite) as electron donor, pH 5.5 (optimal), 30 mM CPT buffer, 37°C, under mineral oil, kcat per subunit.

The term Km denotes the substrate concentration at which the rate is half of its maximum. What is called kcat is the maximal rate divided by the concentration of active sites.

B1: Cu-containing nitrite reductase (recombinant NirK) from Nitrosococcus oceani NS58 (Nitrosococcus oceani ATCC 19707) (protein)
chain: ADGEASSYIANIGTHANLKDLERVRQELVAPPHLPDHQQAYSGKPRIVEIEMVIEEKEVEIEPNVFVQAMTFNGTNPGPIIVVHEGDYVELTLKNLDTNMLLHNIDFHPATGALGGGALTKVAPGQQVTLRFKADKAGTYVYHCAPGGLMTPYHVVSGMYGAIMIFPKKGLRDQNGKKVTYDKAYYVGEQGWYIPKDKNGKYKRYANAIEPYGDTLEVMRGLVPTHVTYNGSKGALTGDNAMKAKVGDSVLFIHSQANEDSRIHLIGGHGDLVWPGGSFKNTPMVDKETWHVNGGESVAALYTFKQPGLYAYLNHNLIQAFMLGGAAHVKVDGEWNNDLMEQVVKPSPINAD
On to B1, for which the Km was 52 µM and the kcat is 1600 s⁻¹.
